Measured values taken from patent US6475775B1, “PARG, a GTPase activating protein which interacts with PTPL1” (Ludwig Institute for Cancer Research, priority 1997, dated 2002).

T1: GST-PDZ 4-5 of PTPL1 (Homo sapiens, UniProt Q12923)
T1 construct: GST-PDZ 4-5, residues 1762-1960; made in house; host or cells: E. coli
T1 sequence (Q12923 1762-1960 isoform Q12923-3): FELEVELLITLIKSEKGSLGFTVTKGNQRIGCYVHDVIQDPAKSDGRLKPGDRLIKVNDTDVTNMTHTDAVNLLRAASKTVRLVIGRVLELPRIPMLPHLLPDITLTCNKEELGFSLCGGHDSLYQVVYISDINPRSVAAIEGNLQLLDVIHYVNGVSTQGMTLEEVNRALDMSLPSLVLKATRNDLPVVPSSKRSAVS

T2: PDZ 4 of PTPL1 (GST-PDZ 4) (Homo sapiens, UniProt Q12923)
T2 construct: GST-PDZ 4, residues 1762-1864; made in house; host or cells: E. coli
T2 sequence (Q12923 1762-1864 isoform Q12923-3): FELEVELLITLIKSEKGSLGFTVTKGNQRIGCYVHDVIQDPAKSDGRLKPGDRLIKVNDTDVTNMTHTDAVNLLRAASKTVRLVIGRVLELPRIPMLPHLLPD


Tests used:
GST-PDZ 4-5 of PTPL1 = target: T1, GST-PDZ 4-5 of PTPL1; assay: Binding of GST-PDZ fusion proteins to C-terminal PARG peptide; details: peptide on Affigel 15 beads; 50 nM fusion protein; 4° C., 2 h; α-GST immunoblot
From the text: (§1) To identify proteins that bind to the PDZ domains of PTPL1, regions of PTPL1 cDNA corresponding to the various PDZ domains were produced by polymerase chain reaction and subcloned into the GST fusion protein expression vector pGEX1λT (Pharmacia): GST-PDZ 1. amino acid residues 1066-1166 of PTPL1; GST-PDZ 2-3. residues 1340-1579; GST-PDZ 3, residues 1469-1579; GST-PDZ 4, residues 1762-1864; GST-PDZ 4-5, residues 1762-1960 and GST-PDZ 5, residues 1856-1960 (FIG. 1A). Domains and motifs indicated in FIG. 1A are: L, leucine zipper motif; Band 4.1, a domain of 300 amino acid residues with homology to the Band 4.1 superfamily; P, PDZ domain; PTP, protein tyrosine phosphatase catalytic domain; GST, glutathione S-transferase. The different expression vector constructs were transformed into E. coli. Glutathione S-transferase (GST) fusion proteins were produced and purified as described by Ridley and Hall (Cell 70: 389-399, 1992) and then subjected to sodium dodecyl sulfate (SDS)-gel electrophoresis.
(§2) It has been shown that PDZ domains interact with the C-terminal ends of short peptides and that a valine residue at the absolute C-terminal end is important for binding (Kim et al., 1995; Komau et al., 1995; Saras et al., in preparation). […]

[1] = target: T2, PDZ 4 of PTPL1 (GST-PDZ 4); assay: as above; details: peptide on Affigel 15 beads; 50 nM fusion protein; 4° C., 2 h; α-GST immunoblot
From the text: as §1, §2

Rho = target: T3, Rho (Homo sapiens, UniProt P61586); assay: GAP activity of PARG GAP domain (GTP hydrolysis, filter binding); format: biochemical; details: 1 nM GST-GAP; Rho preloaded with γ-32P-GTP; 30° C.
T3 construct: GST (N, cleaved yes); made in house; host or cells: E. coli
T3 sequence (P61586 whole entry, the tested form may be a part): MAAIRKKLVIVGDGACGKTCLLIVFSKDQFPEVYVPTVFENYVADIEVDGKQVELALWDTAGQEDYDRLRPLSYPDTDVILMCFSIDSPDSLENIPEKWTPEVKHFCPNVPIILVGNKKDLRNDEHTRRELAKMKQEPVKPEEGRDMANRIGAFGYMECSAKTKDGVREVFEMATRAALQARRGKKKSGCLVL
From the text: (§3) In order to determine the GAP activity of PARG on proteins of the Rho family, the GAP domain of PARG was produced as a GST fusion protein in E. coli (FIG. 5A). Briefly, a DNA fragment coding for the GAP domain, i.e., amino acid residues 658-898, of PARG was produced by polymerase chain reaction and subcloned into pGEX1λT and referred to as GST-GAP. pGEX2T-based expression vectors containing RhoA, Rac1 and Cdc42 (G25K isoform) cDNAs were obtained from Dr. A. Hall (MRC Laboratory for Molecular Cell Biology and Department of Biochemistry, University College London, UK). These different expression vector constructs were transformed into E. coli. The GST fusion proteins were produced and purified essentially as described above in Example 1. Recombinant Rho, Rac and Cdc42 proteins were subjected to thrombin cleavage (Ridley and Hall, 1992).
(§4) Recombinant Rho, Rac and Cdc42 were preloaded with γ-^32P-GTP and incubated for various time periods in the presence of the GST-GAP fusion protein or, as control, GST protein. Thereafter, the radioactivity bound to the GTPase was determined as a measurement of the GTP hydrolysis activity. Briefly, 200 nM aliquots of recombinant Rho, Rac and Cdc42 were incubated at 30° C. with 10 μCi γ-^32P-GTP in 20 mM Tris-HCI, pH 7.5, 25 mM NaCl, 4 mM EDTA, 0.1 mM dithiothreitol, and the nucleotide exchange was stopped after 10 min by the addition of 17 mM MgCl2. Proteins (100 nM GST, 1 nM or 20 nM of GST-GAP fusion protein) were added to the reaction mixture and aliquots of 5 μl were withdrawn and collected on nitrocellulose filters (HA, Millipore, Bedford, Mass.) at 3 min intervals. The filters were washed with cold buffer (50 mM Tris-HCI pH 7.5, 50 mM NaCl, 5 mM MgCl2), dried and subjected to scintillation counting. The amount of protein-bound radioactivity is expressed as the percentage of the total input.

Rac = target: T4, Rac (Homo sapiens, UniProt P63000); assay: as above; format: biochemical; details: Rac preloaded with γ-32P-GTP, 30° C.
T4 construct: GST (N, cleaved yes); made in house; host or cells: E. coli
From the text: as §3, §4

Cdc42 = target: T5, Cdc42 (Homo sapiens, UniProt P60953); assay: as above; format: biochemical; details: Cdc42 preloaded with γ-32P-GTP, 30° C.
T5 construct: GST (N, cleaved yes); made in house; host or cells: E. coli
T5 sequence (P60953 1-191 isoform P60953-1): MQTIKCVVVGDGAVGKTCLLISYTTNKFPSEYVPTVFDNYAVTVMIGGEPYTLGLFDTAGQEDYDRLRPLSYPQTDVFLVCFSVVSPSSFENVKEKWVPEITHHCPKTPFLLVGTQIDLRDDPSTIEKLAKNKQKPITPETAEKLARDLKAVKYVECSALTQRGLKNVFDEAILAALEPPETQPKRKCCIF
From the text: as §3, §4

binding of GST-PDZ 4-5 to the peptide (GST-PDZ 4-5 of PTPL1) | binding of GST-PDZ 4 to the peptide [1] | GAP activity on Rho (Rho) | GAP activity on Rac (Rac; 1 nM GST-GAP) | GAP activity on Rac (Rac; 20 nM GST-GAP) | GAP activity on Cdc42 (Cdc42; 1 nM GST-GAP) | GAP activity on Cdc42 (Cdc42; 20 nM GST-GAP) | Molecule
bound | bound |  |  |  |  |  | PQFV (listed as Homo sapiens) [synthetic peptide, last 4 C-terminal amino acid residues of PARG]
 |  | strong GAP activity | no GAP activity | active | no GAP activity | active | GST-GAP fusion protein: GAP domain, amino acid residues 658-898 of PARG, produced as a GST fusion protein in E. coli (protein, left off: a dimerising Fc or GST, GAP domain, amino acid residues 658-898 of PARG, produced as a GST fusion protein in E. coli) GHQKLPGKIHLFGAEFTLVAKKEPDGIPFILKICASEIENRALCLQGIYRVCGNKIKTEKLCLALENGMHLVDISEFSSHDICDVLKLYLRQLPEPFILFRLYKEFIDLAKEIQHVNEEQETKKNSLEDKKWPNMCIEINRILLKSKDLLRQLPASNFNSLHFLIVHLKRVVDHAEENKMNSKNLGVIFGPSLIRPRPQTAPITISSLAEYSNQARLVEFLITYSQKIFDGSLQPQDVMCS
